Results taken from the supplement of paper PMC9170038.

Test system: MS2 coat protein
Experiment: apparent KD of MS2 coat protein; designed switch direction (-1 OFF switch, 1 ON switch): 1; higher = weaker reporter binding
In short: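 The apparent KD reported per design is the median over clusters of curve fits to normalised cluster fluorescence. The RNA switches were transcribed on Illumina chips by stalled E. coli RNA polymerase. SNAP-549-labelled MS2 coat protein was titrated from 0.7 or 1.5 nM, doubling up to 3 µM, in Tris-HCl pH 7.5 buffer containing KCl, MgCl2, BSA, DTT, tRNA and Tween-20, with no input, 200 uM small-molecule ligand, or an oligonucleotide input.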

[1] = input ligand: microRNA oligo, concentration not stated
[2] = Eterna round: R95, input ligand: FMN 200 uM
[3] = Eterna round: R95, input ligand: microRNA oligo, concentration not stated
[4] = Eterna round: R95, input ligand: none

Sequence	apparent KD of MS2 coat protein (input ligand: FMN 200 uM) [nM]	apparent KD of MS2 coat protein [1] [nM]	apparent KD of MS2 coat protein (input ligand: none) [nM]	apparent KD of MS2 coat protein [2] [nM]	apparent KD of MS2 coat protein [3] [nM]	apparent KD of MS2 coat protein [4] [nM]
AAACAGCCGAACGGAGGGCCACAUGAGGAUCACCCAUGUACAUAGGAUAUCAUGCCAACGAGGCAUGAGAAGGGUGAUUAAAAC [Usinvema] (Eterna round: R96, puzzle: Same State NG 3)	11.7	350	359	–	–	–
CUUUUUAGUGCAGGAUAUGAUCAACAUGAGGAUCACCCAUGUGGCGUUGUGAGUAGGGAGAGAGAUCAGAAGGGCGUCUCCGCG [SS-NG2-LRO12] (Eterna round: R96, puzzle: Same State NG 2)	46.4	62.3	42.2	–	–	–
ACUUGCUUUUUGCUCAUUUUUUGUCCGUAACAUGAGGAUCACCCAUGUGUAGAUUAUGUGUUGUUUUUGAUACGUGA [JR_SHM208A_Sub068] (puzzle: Sensor for hsa-mir-208a)	–	–	–	29.9	29.5	34.6
GUGGUGCUUCUAGGAUAUUCAGCGGCCCUCACAUGAGGAUCACCCAUGUUCACAAGAGAAACCAUGAAGAAGGAGAACUACAAU [Eternabot solution 42] (Eterna round: R96, puzzle: Same State NG 2)	45.6	39.9	55.8	–	–	–
CGUCCGGCCUGUGCUGGCCGGUAUCAUGUACAUGAGGAUCACCCAUGUUCAUGUGCAGGCUUUUUGCUCGUCUUGUG [salish99_mir208a_012] (puzzle: Sensor for hsa-mir-208a)	–	–	–	20.5	12.8	19.9
AGCUAUUACGAAGGAUAUUGUGACAUGAGGAUCACCCAUGUUUGCAUGAUUAAUUGUGAUCACGUCGAGAAGGUUGUACUAACA [SameState NG2 #31] (Eterna round: R96, puzzle: Same State NG 2)	26.2	20.9	29.5	–	–	–
AUAAAACAUGAGGAUCACCCAUGUCAACAAAGUCGAGGAUAUGGGUAAAUAAAAUAAGAACCAGAAGGCGAAUAAU [salish99_ss1_r3_028] (puzzle: Same State 1)	–	–	–	83.5	283	163
CUCCAUUGGGUAGGAUAUCUAGGAUAUGGGAAAGACUAAGUCUGUAGGUCACCUAACCCAGAUGGAGAGAAGGACCCAACACUC [pwkr ssNG2 2FMN + F9.40] (Eterna round: R96, puzzle: Same State NG 2)	15.1	15.2	23.2	–	–	–
AUAUGAGAAGCAGGAUAUGUGAAAAAAAAACAUACAGAAGGGUUUAUGGGACAACAUGAGGAUCACCCAUGUUCUCUGUGAUGA [AK SSNG1-V2-1.1] (Eterna round: R96, puzzle: Same State NG 1)	–	59.2	–	–	–	–
GCCGCGUUUCGCGCCUACAUGAGGAUCACCCAUGUAUGUAGGCAGGAUAUCGUUUGCUUUGCAAACGAGAAGGGCUGUAGUGGC [salish99_SSNG3_R04_008] (Eterna round: R96, puzzle: Same State NG 3)	70.4	165	188	–	–	–
AGCUAUCGAAAACGAUAGCAAAAGCAUGUACAUGAGGAUCACCCAUGUUAUGUACAAGCUUUUUGCUCGUCUUAAAA [Zipper 23 - 11] (puzzle: Sensor for hsa-mir-208a)	–	–	–	326	12	308
ACGCAGCUGGGCUAGGAUAUCGGUGGUAAAACAUGAGGAUCACCCAUGUCCGAAGCUCGGACUUCCGAGAAGGAGCCCGGCUGCG [Soinraesar Omei Mod 9] (puzzle: Same State 2)	–	–	–	34.1	253	481
UGGAUCUAGGCUUGCCUGGGUCCAUGUUGACAUGAGGAUCACCCAUGUGUAUUUUUUUAGCUUUUUGUUUGUCAACU [JL A Humble Attempt mod 10] (puzzle: Sensor for hsa-mir-208a)	–	–	–	26.2	13	25.5
AAAAUGUGAUGUUACAUGAGGAUCACCCAUGUAGUGACAACUAAGGAUAUCCGAAAAAAAGGAGAGGAGAAGGUAGGAUCACAA [AK SSNG3-V2-16.2] (Eterna round: R96, puzzle: Same State NG 3)	18.3	33.3	46.3	–	–	–
AAAGAAAACAUAGGAUAUGUAACAUGAGGAUCACCCAUGUAUACCUCGUAAGAGAUGAUGGAUGGACAGAAGGAUGGUCUCAGG [Default title] (Eterna round: R96, puzzle: Same State NG 2)	134	73.7	80.6	–	–	–
GUUAGGAAUCUAGCAUACAUGAGGAUCACCCAUGUAAGUGGGAAGGAUAUGGUACAGAAACUGUACCAGAAGGUCUUAUUGUUU [Omei SS(NG) 3 AV7] (Eterna round: R96, puzzle: Same State NG 3)	149	366	330	–	–	–
CUAUCUACAGGUUGCAGUGCUCGUCUUAUACAUGAGGAUCACCCAUGUUAUAGCCCGGUGCUUGCGCUGGGCUGACC [JL ViennaUCT Tearor mod 1] (puzzle: Sensor for hsa-mir-208a)	–	–	–	33.7	15.6	33.6
GUACAUAUUAUAGGAUAUCACGUCGAUUAGACGUGAGAAGGAUAAUCCCACAUGAAUAUUAAUACAUGAGGAUCACCCAUGUAC [SSNG1/18-A2] (Eterna round: R96, puzzle: Same State NG 1)	83.3	66.3	51	–	–	–
UACAUACGCGGAGGAUAUGGGCGAGGCGCGGAGGUCCGCGCCAAAACAUGAGGAUCACCCAUGUCCCAGAAGGCCGCACAAACU [Atusso] (Eterna round: R96, puzzle: Same State NG 2)	15.1	66.4	86.6	–	–	–
GCUGCAAAGGCAGGAUAUGGGUUCAGAGCGGAAGUGCGCUUUGACACAUGAGGAUCACCCAUGUCCCAGAAGGGCCCAAGCGGC [Ateanso] (Eterna round: R96, puzzle: Same State NG 2)	21.2	120	178	–	–	–
GAGUUUGAACUACAGGAUAUAUAGCAGAUGACAUGAGGAUCACCCAUGUAAGAGAAAGGAGGGAAAUAGAAGGGUAUGGGAGGUG [JR_SS2_Sub035] (puzzle: Same State 2)	–	–	–	33.7	20.4	24.3
CCGAUGUGGGUACAGGAUAUGUGGGCCUCCACAUGAGGAUCACCCAUGUCGGAGGCAAAGCGGCUACAGAAGGGUGCGUGCUCGA [Riinceer] (puzzle: Same State 2)	–	–	–	13.1	11.3	12.3
GUUAUUAAUGCAGGAUAUGAUUAACAUGAGGAUCACCCAUGUGGUGUUGUGAGUAAGGAGAGUGAUCAGAAGGGCAUUUUUUUU [JMF's solution 40] (Eterna round: R96, puzzle: Same State NG 2)	890	815	764	–	–	–
